US20240325499A1, “FGF21 COMPOUND / GLP-1R AGONIST COMBINATIONS WITH OPTIMIZED ACTIVITY RATIO” (SANOFI, priority 2018, published 2024)

Target: human FGFR1c (FGF receptor 1c isoform) together with human beta-Klotho (KLB) (human) (UniProt P11362)
Assay: cell-based or functional assay

mature human wild-type FGF21, FGF21(His29-Ser209), sequence (Q9NSA1 29-209 L174P): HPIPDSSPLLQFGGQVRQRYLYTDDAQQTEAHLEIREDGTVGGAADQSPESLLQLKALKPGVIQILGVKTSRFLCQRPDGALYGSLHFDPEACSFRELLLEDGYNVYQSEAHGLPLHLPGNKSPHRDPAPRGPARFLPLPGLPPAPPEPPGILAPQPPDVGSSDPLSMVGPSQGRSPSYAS

Substance: mature human wild-type FGF21, FGF21(His29-Ser209) (from UniProt Q9NSA1 29-209) (ligand)
- pERK ICW EC50 (nmol/L): 0.18 nmol/L
- pFGFR ICW EC50 (nmol/L): 4.8 nmol/L
